Assay results taken from patent publication US20210301349A1, “COMPOSITIONS AND METHODS FOR TREATING A TUMOR SUPPRESSOR DEFICIENT CANCER” (BETH ISRAEL DEACONESS MEDICAL CENTER, INC., priority 2016, published 2021).

Tests used:
[1] = tested on: prostate cancer; settings: phase III clinical trial in prostate cancer; cited from earlier work
[2] = tested on: monocytes isolated from the bone marrow of healthy mice; test: Transwell migration assay with recombinant proteins, monocytes; format: cell-based, mouse; settings: increasing concentration of recombinant protein in bottom well
Source text: (§1) Gr1+ cells and monocytes were isolated from the bone marrow (tibias and femurs) of C57BL/6 wild type, 3 months old mice using the MACS Myltenyi Biotec Cell Isolation system according to the manufacturer's instruction. For monocytes isolation the Monocyte Isolation Kit (BM) (Miltenyi 130-100-629) was used, whereas Gr1 positive cells were isolated using the antibody Anti-Gr-1-Biotin, clone RB6-8C5 (Miltenyi 130-101-894). Red blood cells were lysed with the ACK lysis buffer (ThermoFisher Scientific A1049201). Total bone marrow cells and Gr1+ cells were cultured for 4 days. Briefly, 40 ng/ml GM-CSF (PeproTech #315-03) and 40 ng/ml IL-6 (PeproTech #216-16) were added to the control medium RPMI 1640 (ThermoFisher Scientific 11875-093), supplemented with penicillin-streptomycin, 10% FBS, 10 mM HEPES, 20 μM 2-Mercaptoethanol. Either recombinant mouse CXCL5 (BioLegend #573302) or recombinant mouse CXCL17 (BioLegend #585402) was added at the beginning of the experiment (200 nM). For the migration assay 2.5×10^5 MACS sorted cells were resuspended in 100 μL of either RPMI 1640 control medium or organoid complete medium and placed on the upper well of the transwell system (5 μm, Corning #160241). […] The migration of cells was quantified by flow cytometry, 15 seconds acquisition time, using BD LSR II flow cytometer.

[3] = tested on: whole bone marrow (BM) mouse cells and Gr1+ cells; test: 4 day culture of bone marrow and Gr1+ cells in GM-CSF, IL-6 medium plus recombinant chemokine; format: cell-based; settings: 4 days culture with IL6 and GM-CSF, recombinant chemokine 200 nM
Source text: Gr1+ cells and monocytes were isolated from the bone marrow (tibias and femurs) of C57BL/6 wild type, 3 months old mice using the MACS Myltenyi Biotec Cell Isolation system according to the manufacturer's instruction. For monocytes isolation the Monocyte Isolation Kit (BM) (Miltenyi 130-100-629) was used, whereas Gr1 positive cells were isolated using the antibody Anti-Gr-1-Biotin, clone RB6-8C5 (Miltenyi 130-101-894). Red blood cells were lysed with the ACK lysis buffer (ThermoFisher Scientific A1049201). Total bone marrow cells and Gr1+ cells were cultured for 4 days. Briefly, 40 ng/ml GM-CSF (PeproTech #315-03) and 40 ng/ml IL-6 (PeproTech #216-16) were added to the control medium RPMI 1640 (ThermoFisher Scientific 11875-093), supplemented with penicillin-streptomycin, 10% FBS, 10 mM HEPES, 20 μM 2-Mercaptoethanol. Either recombinant mouse CXCL5 (BioLegend #573302) or recombinant mouse CXCL17 (BioLegend #585402) was added at the beginning of the experiment (200 nM). For the migration assay 2.5×10^5 MACS sorted cells were resuspended in 100 μL of either RPMI 1640 control medium or organoid complete medium and placed on the upper well of the transwell system (5 μm, Corning #160241). The migration assay with recombinant proteins was performed by adding to the bottom well 600 μL of RMPI1640 control medium supplemented with the indicated amount of either CXCL5 or CXCL17. The migration assay with organoid conditioned medium was performed by adding to the bottom well 600 μL of medium collected over 5 days of culture of prostate organoids with the indicated genotype. The migration of cells was quantified by flow cytometry, 15 seconds acquisition time, using BD LSR II flow cytometer.
For Flow Cytometry, spleen and lymph node single cell suspensions were prepared by mashing the tissue in 2% FBS/PBS. Tumor and control prostate tissue (from anterior lobes) single cell suspension was prepared by mincing the tumor and digestion with Collagenase Type I (Life Technologies #17018029) in 10% DMEM (GIBCO) for 1 hr at 37° C. Cell suspensions were passed through […] cell strainers to obtain single cell suspensions. Blood samples and single cell suspensions were re-suspended in 1-2 ml of ACK red cell lysis buffer (GIBCO) and lysed on ice for 1 minute. Cell suspensions were then washed in 2% FBS/PBS, centrifuged and re-suspended in 0.5-1 ml of 2% FBS/PBS. […] All staining mixtures were analyzed on a BD LSR II flow cytometer (Becton Dickinson). Resulting profiles were further processed and analyzed using the FlowJo 8.7 software.
Microarray analysis and gene set enrichment analysis on mouse tumor tissue were conducted and analyzed as previously described by Palucka, A. K. et al. (Palucka, A. K. et al. Cell 164, 1233-1247 (2016)). […]

[4] = tested on: Gr1+ cells isolated from the bone marrow of healthy mice; test: Transwell migration assay with recombinant proteins, Gr1+ cells; format: cell-based, mouse; settings: increasing concentration of recombinant protein in bottom well
Source text: as §1

COc1cccc2c1c(O)c(C(=O)N(C)c1ccc(C(F)(F)F)cc1)c(=O)n2C [Tasquinimod]
survival benefit [1]: failed to show a clear survival benefit

B1: CXCL17: recombinant mouse CXCL17 (BioLegend #585402), chemokine (protein, UniProt Q5UW37 23-119, looked up)
C-X-C motif chemokine 17: SPNPGVARSHGDQHLAPRRWLLEGGQECECKDWFLQAPKRKATAVLGPPRKQCPCDHVKGREKKNRHQKHHRKSQRPSRACQQFLKRCHLASFALPL
migration of monocytes (Ly6G−/Ly6C^hi cells) [2]: chemoattractants | expression of the Ly6C and Ly6G markers and expression profile of the genes tested [3]: did not observe any significant difference | expression of the Ly6C and Ly6G markers and expression profile of the genes tested ([3]; listed as recombinant CXCL17): did not show significant changes

B2: CXCL5: recombinant mouse CXCL5 (BioLegend #573302), chemokine (protein, UniProt P50228 41-132, looked up)
C-X-C motif chemokine 5: APSSVIAATELRCVCLTVTPKINPKLIANLEVIPAGPQCPTVEVIAKLKNQKEVCLDPEAPVIKKIIQKILGSDKKKAKRNALAVERTASVQ
migration of Gr1+ cells [4]: strongly induced the migration | expression of the Ly6C and Ly6G markers and expression profile of the genes tested [3]: did not observe any significant difference | expression of the Ly6C and Ly6G markers and expression profile of the genes tested ([3]; listed as recombinant CXCL5): did not show significant changes
